# Test results as given in the supplement of paper PMC10724198.
# ± gives the standard deviation of the averaged measurements.
# Columns and labels:
# [1] = test system: Saccharomyces cerevisiae; assay: protein stability index of tFT-peptide fusion (C-terminal peptide) (PSI (0-1 scale)); higher = more stable (slower turnover); conditions: genetic background: wild type; temperature: 30 C
# [2] = test system: Saccharomyces cerevisiae; assay: as above
# Protocol: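 MPS profiling in S. cerevisiae of the tFT-X12 degron library: putative degron peptides plus stable controls, 12 aa, fused to the C-terminus of a sfGFP-mCherry timer. Cells are FACS-sorted into 8 mCherry/sfGFP bins and deep-sequenced. PSI runs from 0 (unstable) to 1 (stable). Backgrounds are wild type, das1Δ and doa10Δ at 30 °C, and wild type, das1Δ, cdc34-1 and cdc53-1 at 37 °C; 2-3 technical replicates each.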
# [3] = genetic background: cdc34-1, temperature: 37 C
# [4] = genetic background: cdc53-1, temperature: 37 C
# [5] = genetic background: das1 deletion, temperature: 30 C
# [6] = genetic background: das1 deletion, temperature: 37 C
# [7] = genetic background: doa10 deletion, temperature: 30 C
# [8] = genetic background: wild type, temperature: 30 C
# [9] = genetic background: wild type, temperature: 37 C
# 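Note: PSI is a weighted mean of sequencing reads over stability bins, variants kept only with over 10 reads, mCherry proximal and sfGFP distal, peptide attached via GGGS linker.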
Sequence,protein stability index [1],"protein stability index [2, 3]","protein stability index [2, 4]","protein stability index [2, 5]","protein stability index [2, 6]","protein stability index [2, 7]","protein stability index [2, 8]","protein stability index [2, 9]"
LLASFWKFIVNI,0.23 ± 0.016,0.613 ± 0.036,0.722 ± 0.015,0.641 ± 0.058,0.7 ± 0.073,0.139 ± 0.012,0.166 ± 0.012,0.166 ± 0.011
LLAWLHTVQRVG,0.339 ± 0.011,0.695 ± 0.028,0.7529 ± 0.0028,0.659 ± 0.02,0.7844 ± 0.0033,0.226 ± 0.0046,0.271 ± 0.023,0.493 ± 0.013
LLFLVCFFPSIS,0.454 ± 0.05,0.46 ± 0.061,0.534 ± 0.016,0.311 ± 0.045,0.549 ± 0.033,0.304 ± 0.0092,0.313 ± 0.043,0.52 ± 0.036
LLFYSYFFFVLY,0.265 ± 0.0037,0.172 ± 0.034,0.148 ± 0.0098,0.248 ± 0.021,0.341 ± 0.015,0.312 ± 0.023,0.213 ± 0.0032,0.286 ± 0.023
LLGGRVLWAWRV,0.376 ± 0.022,0.653 ± 0.045,0.689 ± 0.052,0.626 ± 0.016,0.737 ± 0.019,0.155 ± 0.026,0.199 ± 0.022,0.3907 ± 0.0025
LLLLFPSPLFIR,0.281 ± 0.05,0.126 ± 0.057,0.0999 ± 0.026,0.235 ± 0.012,0.303 ± 0.022,0.553 ± 0.024,0.216 ± 0.019,0.272 ± 0.02
LLLRQVFSLGVF,0.162 ± 0.0081,0.549 ± 0.048,0.64 ± 0.023,0.558 ± 0.011,0.6741 ± 0.0063,0.104 ± 0.018,0.142 ± 0.014,0.312 ± 0.021
LLLVSLAVPLSL,0.509 ± 0.022,0.524 ± 0.013,0.569 ± 0.014,0.465 ± 0.017,0.559 ± 0.021,0.451 ± 0.03,0.459 ± 0.02,0.539 ± 0.0084
LLSLPTTNLMAF,0.484 ± 0.014,0.575 ± 0.029,0.61058 ± 0.00044,0.49 ± 0.026,0.615 ± 0.0099,0.356 ± 0.02,0.403 ± 0.018,0.56467 ± 0.00055
LLTLILRIFVLN,0.225 ± 0.024,0.304 ± 0.031,0.451 ± 0.0055,0.316 ± 0.028,0.476 ± 0.028,0.144 ± 0.01,0.147 ± 0.028,0.217 ± 0.037
LLVFFLAIPSLV,0.337 ± 0.031,0.286 ± 0.011,0.343 ± 0.02,0.23 ± 0.037,0.413 ± 0.0073,0.195 ± 0.014,0.219 ± 0.033,0.3853 ± 0.002
LLVFSLLYPCLV,0.345 ± 0.021,0.324 ± 0.0049,0.362 ± 0.017,0.289 ± 0.031,0.419 ± 0.013,0.241 ± 0.0036,0.272 ± 0.02,0.3913 ± 0.0032
LLVIAIKVPANS,0.429 ± 0.024,0.489 ± 0.013,0.485 ± 0.0072,0.352 ± 0.025,0.507 ± 0.018,0.337 ± 0.036,0.358 ± 0.012,0.485 ± 0.00075
LLVYLYFFFSCS,0.374 ± 0.022,0.309 ± 0.041,0.442 ± 0.045,0.292 ± 0.021,0.484 ± 0.005,0.2414 ± 0.0016,0.263 ± 0.011,0.42 ± 0.027
LLYHFCLFFFRE,0.513 ± 0.044,0.521 ± 0.044,0.592 ± 0.037,0.462 ± 0.024,0.619 ± 0.014,0.441 ± 0.015,0.449 ± 0.011,0.558 ± 0.053
LMVLISVMFSLG,0.323 ± 0.022,0.112 ± 0.0088,0.254 ± 0.029,0.149 ± 0.022,0.292 ± 0.012,0.113 ± 0.013,0.182 ± 0.032,0.231 ± 0.012
LMWVFPRVVWLY,0.0903 ± 0.014,0.123 ± 0.037,0.102 ± 0.016,0.244 ± 0.042,0.321 ± 0.022,0.0838 ± 0.0041,0.0646 ± 0.0052,0.0611 ± 0.00062
LPLHTLLLCPPV,0.493 ± 0.031,0.447 ± 0.037,0.459 ± 0.013,0.37 ± 0.03,0.4988 ± 0.003,0.345 ± 0.0046,0.382 ± 0.024,0.4782 ± 0.0033
LPLVFYCFLLHS,0.4422 ± 0.002,0.49 ± 0.026,0.523 ± 0.0057,0.394 ± 0.029,0.518 ± 0.0063,0.386 ± 0.01,0.376 ± 0.035,0.509 ± 0.015
LPVPVLGFPPLA,0.7186 ± 0.0014,0.703 ± 0.022,0.778 ± 0.018,0.664 ± 0.018,0.732 ± 0.032,0.659 ± 0.027,0.655 ± 0.015,0.71 ± 0.011

Sequence,protein stability index [1],"protein stability index [2, 3]","protein stability index [2, 4]","protein stability index [2, 5]","protein stability index [2, 6]","protein stability index [2, 7]","protein stability index [2, 8]","protein stability index [2, 9]"
LRCCGALPLYAY,0.348 ± 0.018,0.251 ± 0.038,0.248 ± 0.03,0.238 ± 0.038,0.3968 ± 0.0033,0.189 ± 0.014,0.228 ± 0.028,0.341 ± 0.022
LRFFYFLHFCIL,0.277 ± 0.03,0.36 ± 0.033,0.366 ± 0.024,0.43 ± 0.018,0.504 ± 0.0076,0.256 ± 0.0083,0.223 ± 0.0052,0.286 ± 0.021
LRRVHRIKLQVC,0.178 ± 0.094,0.254 ± 0.06,0.431 ± 0.035,0.288 ± 0.029,0.477 ± 0.014,0.0938 ± 0.0029,0.0996 ± 0.015,0.102 ± 0.0019
LRVAWVCISIVA,0.117 ± 0.027,0.0375 ± 0.005,0.0899 ± 0.006,0.0876 ± 0.023,0.164 ± 0.0029,0.0363 ± 0.011,0.0495 ± 0.015,0.0664 ± 0.0091
LRVPCPPCCVFV,0.398 ± 0.027,0.568 ± 0.049,0.69936 ± 0.0003,0.616 ± 0.016,0.727 ± 0.0099,0.33 ± 0.015,0.334 ± 0.009,0.4302 ± 0.0026
LSQPGWFKCCLS,0.42 ± 0.013,0.653 ± 0.014,0.737 ± 0.05,0.662 ± 0.029,0.7677 ± 0.00079,0.308 ± 0.023,0.326 ± 0.023,0.463 ± 0.029
LSRFRYFVLTSL,0.261 ± 0.041,0.531 ± 0.026,0.6913 ± 0.0028,0.608 ± 0.018,0.698 ± 0.033,0.146 ± 0.015,0.171 ± 0.019,0.263 ± 0.037
LSVSEILAVKCG,0.489 ± 0.012,0.559 ± 0.034,0.584 ± 0.0073,0.429 ± 0.034,0.592 ± 0.026,0.363 ± 0.0039,0.411 ± 0.026,0.5632 ± 0.0052
LTACRYVCFLLF,0.261 ± 0.041,0.575 ± 0.019,0.644 ± 0.018,0.561 ± 0.017,0.676 ± 0.037,0.239 ± 0.0088,0.261 ± 0.032,0.424 ± 0.012
LTFRFGVNPYVF,0.323 ± 0.011,0.631 ± 0.034,0.748 ± 0.013,0.634 ± 0.019,0.752 ± 0.024,0.132 ± 0.0056,0.14 ± 0.023,0.283 ± 0.015
LVLELYRFARFG,0.3197 ± 0.0012,0.636 ± 0.03,0.7337 ± 0.0046,0.643 ± 0.0069,0.742 ± 0.015,0.2704 ± 0.00045,0.276 ± 0.043,0.532 ± 0.038
LVLFVVGGWVSL,0.445 ± 0.043,0.35 ± 0.023,0.474 ± 0.082,0.316 ± 0.023,0.551 ± 0.014,0.279 ± 0.0085,0.311 ± 0.029,0.54 ± 0.076
LVSLCYAYPRYC,0.387 ± 0.025,0.646 ± 0.016,0.685 ± 0.008,0.532 ± 0.016,0.7025 ± 0.0052,0.2577 ± 0.00032,0.279 ± 0.031,0.5826 ± 0.0029
LVVAVLKIIMSS,0.124 ± 0.027,0.13 ± 0.023,0.201 ± 0.00098,0.2 ± 0.033,0.349 ± 0.013,0.0697 ± 0.012,0.0742 ± 0.023,0.0596 ± 0.0031
LWFLDYVFICFL,0.382 ± 0.022,0.335 ± 0.017,0.347 ± 0.025,0.33 ± 0.034,0.452 ± 0.012,0.3673 ± 0.0034,0.299 ± 0.018,0.399 ± 0.011
LWFRCVRMQACR,0.507 ± 0.032,0.47 ± 0.031,0.51569 ± 0.00022,0.411 ± 0.019,0.5101 ± 0.0028,0.42 ± 0.025,0.41 ± 0.015,0.492 ± 0.0094
LWLFIVCWVGCV,0.247 ± 0.033,0.234 ± 0.017,0.301 ± 0.044,0.201 ± 0.019,0.339 ± 0.014,0.1847 ± 0.00077,0.177 ± 0.025,0.31 ± 0.0052
LWLVSLLVLWLT,0.316 ± 0.018,0.332 ± 0.035,0.375 ± 0.033,0.291 ± 0.033,0.439 ± 0.011,0.239 ± 0.0059,0.256 ± 0.02,0.383 ± 0.013
LWNFYELVVYAM,0.212 ± 0.018,0.046 ± 0.016,0.0695 ± 0.046,0.159 ± 0.035,0.153 ± 0.04,0.103 ± 0.021,0.121 ± 0.019,0.114 ± 0.0054
